Experimental data reported in PMC6421079.

Target: Rubiscolin-6 (Spinacia oleracea)
Test: [3H]DPDPE displacement radioligand binding

B1: Delta opioid receptor, P41143 (protein)
chain: MEPAPSAGAELQPPLFANASDAYPSACPSAGANASGPPGARSASSLALAIAITALYSAVCAVGLLGNVLVMFGIVRYTKMKTATNIYIFNLALADALATSTLPFQSAKYLMETWPFGELLCKAVLSIDYYNMFTSIFTLTMMSVDRYIAVCHPVKALDFRTPAKAKLINICIWVLASGVGVPIMVMAVTRPRDGAVVCMLQFPSPSWYWDTVTKICVFLFAFVVPILIITVCYGLMLLRLRSVRLLSGSKEKDRSLRRITRMVLVVVGAFVVCWAPIHIFVIVWTLVDIDRRDPLVVAALHLCIALGYANSSLNPVLYAFLDENFKRCFRQLCRKPCGRPDPSSFSRAREATARERVTACTPSDGPGGGAAA
B1 gave a Ki of 1000 nM.
